Data published in patent US20180346602A1.

What was measured:
[1] = target: anti-VEGF/ANG2 antibody (IgG1 subclass with mutations P329G/L234A/L235A/I253A/H310A/H435A) [IgG part: P01857]; assay: sandwich ELISA assay A; capture M1.7.10-Bi; antibody 1 at 3 ng/mL
[2] = target: anti-IGF-1R antibody (IgG1 subclass with mutations I253A/H310A/H435A) [IgG part: P01857]; assay: sandwich ELISA assay A; capture M1.7.10-Bi; antibody 3 at 6 ng/mL
[3] = target: anti-VEGF/ANG2 antibody (IgG1 subclass with mutations P329G/L234A/L235A/I253A/H310A/H435A) [IgG part: P01857]; assay: sandwich ELISA assay A; capture M1.7.10-Bi; antibody 1 at 50 ng/mL
[4] = target: anti-VEGF/ANG2 antibody (wild-type IgG1 subclass) [IgG part: P01857]; assay: sandwich ELISA assay A; capture M1.7.10-Bi; antibody 5 at 25 ng/mL
[5] = target: anti-VEGF/ANG2 antibody (IgG1 subclass with mutations P329G/L234A/L235A/I253A/H310A/H435A) [IgG part: P01857]; assay: sandwich ELISA assay A; capture M1.7.10-Bi; antibody 1 at 100 ng/mL
[6] = target: anti-VEGF/ANG2 antibody (IgG1 subclass with mutations P329G/L234A/L235A) [IgG part: P01857]; assay: sandwich ELISA assay A; capture M1.7.10-Bi; antibody 2 at 100 ng/mL
[7] = target: anti-IGF-1R antibody (IgG1 subclass with mutations I253A/H310A/H435A) [IgG part: P01857]; assay: sandwich ELISA assay A; capture M1.7.10-Bi; antibody 3 at 100 ng/mL
[8] = target: anti-IGF-1R antibody (IgG1 subclass with mutations I253A/H310A/H435A) [IgG part: P01857]; assay: sandwich ELISA assay A; capture M1.7.10-Bi; antibody 3 at 0 ng/mL (blank)
[9] = target: anti-P-Selectin antibody (IgG4 subclass with mutations S228P/L235E) [IgG part: P01861]; assay: sandwich ELISA assay A; capture M1.7.10-Bi; antibody 4 at 0 ng/mL (blank)
[10] = target: anti-IGF-1R antibody (IgG1 subclass with mutations I253A/H310A/H435A) (human) [IgG part: P01857]; assay: sandwich ELISA assay C; capture on SA plate; tracer FcγRI-Dig; analyte 2 ng/mL
[11] = target: anti-P-Selectin antibody (IgG4 subclass with mutations S228P/L235E) (human) [IgG part: P01861]; assay: as above
[12] = target: anti-VEGF/ANG2 antibody (IgG1 subclass with mutations P329G/L234A/L235A) (human) [IgG part: P01857]; assay: as above
[13] = target: anti-VEGF/ANG2 antibody (IgG1 subclass with mutations P329G/L234A/L235A/I253A/H310A/H435A) (human) [IgG part: P01857]; assay: as above
[14] = target: anti-IGF-1R antibody (IgG1 subclass with mutations I253A/H310A/H435A) (human) [IgG part: P01857]; assay: sandwich ELISA assay C; capture on SA plate; tracer FcγRI-Dig; analyte 25 ng/mL
[15] = target: anti-P-Selectin antibody (IgG4 subclass with mutations S228P/L235E) (human) [IgG part: P01861]; assay: as above
[16] = target: anti-VEGF/ANG2 antibody (IgG1 subclass with mutations P329G/L234A/L235A) (human) [IgG part: P01857]; assay: as above
[17] = target: anti-VEGF/ANG2 antibody (IgG1 subclass with mutations P329G/L234A/L235A/I253A/H310A/H435A) (human) [IgG part: P01857]; assay: as above
[18] = target: anti-IGF-1R antibody (IgG1 subclass with mutations I253A/H310A/H435A) (human) [IgG part: P01857]; assay: sandwich ELISA assay B; capture on SA plate; tracer M1.7.10-Dig; analyte 100 ng/mL
[19] = target: anti-P-Selectin antibody (IgG4 subclass with mutations S228P/L235E) (human) [IgG part: P01861]; assay: as above
[20] = target: anti-VEGF/ANG2 antibody (IgG1 subclass with mutations P329G/L234A/L235A/I253A/H310A/H435A) (human) [IgG part: P01857]; assay: as above
[21] = target: anti-IGF-1R antibody (IgG1 subclass with mutations I253A/H310A/H435A) (human) [IgG part: P01857]; assay: sandwich ELISA assay B; capture on SA plate; tracer M1.7.10-Dig; analyte 0 ng/mL (blank)
[22] = target: anti-P-Selectin antibody (IgG4 subclass with mutations S228P/L235E) (human) [IgG part: P01861]; assay: as above
[23] = target: anti-VEGF/ANG2 antibody (IgG1 subclass with mutations P329G/L234A/L235A) (human) [IgG part: P01857]; assay: as above
[24] = target: anti-VEGF/ANG2 antibody (IgG1 subclass with mutations P329G/L234A/L235A/I253A/H310A/H435A) (human) [IgG part: P01857]; assay: as above

| Binder | signal [OD405 nm] [1] | signal [OD405 nm] [2] | signal [OD405 nm] [3] | signal [OD405 nm] [4] | signal [OD405 nm] [5] | signal [OD405 nm] [6] | signal [OD405 nm] [7] | signal [OD405 nm] [8] | signal [OD405 nm] [9] | signal [OD405 nm] [10] | signal [OD405 nm] [11] | signal [OD405 nm] [12] | signal [OD405 nm] [13] | signal [OD405 nm] [14] | signal [OD405 nm] [15] | signal [OD405 nm] [16] | signal [OD405 nm] [17] | signal [OD405 nm] [18] | signal [OD405 nm] [19] | signal [OD405 nm] [20] | further results |
| --- | --- | --- | --- | --- | --- | --- | --- | --- | --- | --- | --- | --- | --- | --- | --- | --- | --- | --- | --- | --- | --- |
| anti-variant (human) Fc-region antibody M1.3.17 (antibody, V domains shown) VH: EVKLLESGGGLVQPGGSLKLSCAASGIDFRRYWMNWVRQAPGKGLEWIGEIDPDSSTINYTPSLKDKFIISRDNAKNTMYLQMRKVRSEDTALYYCARPYDYGAWFAYWGQGTLVTVSA VL: QAVVTQESALTTSPGETVTLTCRSTTGAVTTSNYANWVQEKPDHLFTGLIGGTNKRAPGVPARFSGSLIGDKAALTITGAQTEDEAIYFCALWYSDHWVFGGGTKLTVL | 0.038 OD405 nm | 0.038 OD405 nm | 0.043 OD405 nm | 0.037 OD405 nm | 0.043 OD405 nm | 3.04 OD405 nm | 0.047 OD405 nm | 0.04 OD405 nm | 0.036 OD405 nm | 1.26 OD405 nm | 1.19 OD405 nm | 1.22 OD405 nm | 1.17 OD405 nm | 1.2 OD405 nm | 1.17 OD405 nm | 1.21 OD405 nm | 1.07 OD405 nm | 0.05 OD405 nm | 0.048 OD405 nm | 0.035 OD405 nm | signal [OD405 nm] [21]: 0.045 OD405 nm; signal [OD405 nm] [22]: 0.049 OD405 nm; signal [OD405 nm] [23]: 0.038 OD405 nm; signal [OD405 nm] [24]: 0.035 OD405 nm |
| anti-variant (human) Fc-region antibody M1.7.24 (antibody, V domains shown) VH: EVKLLESGGGLVQPGGSLKLSCAASGFDFSRYWMNWVRQAPGKGLEWIGEITPDSSTINYTPSLKDKFIISRDNAKNTLYLQMIKVRSEDTALYYCVRPYDYGAWFASWGQGTLVTVSA VL: QAVVTQESALTTSPGETVTLTCRSSTGAVTTSNYANWVQEKPDHLFTGLIGGTNKRAPGVPARFSGSLIGDKAALTITGAQTEDEAIYFCALWYSNHWVFGGGTKLTVL | 0.046 OD405 nm | 0.042 OD405 nm | 0.051 OD405 nm | 0.039 OD405 nm | 0.053 OD405 nm | 2.65 OD405 nm | 0.06 OD405 nm | 0.049 OD405 nm | 0.045 OD405 nm | 0.074 OD405 nm | 0.056 OD405 nm | 0.093 OD405 nm | 0.085 OD405 nm | 0.073 OD405 nm | 0.07 OD405 nm | 0.083 OD405 nm | 0.082 OD405 nm | 0.098 OD405 nm | 0.05 OD405 nm | 0.057 OD405 nm | signal [OD405 nm] [21]: 0.04 OD405 nm; signal [OD405 nm] [22]: 0.035 OD405 nm; signal [OD405 nm] [23]: 0.046 OD405 nm; signal [OD405 nm] [24]: 0.049 OD405 nm |
| anti-AAA variant Fc-region antibody M1.6.22 (antibody, V domains shown) VH: EVQLVESGGDLVKPGGSLKLSCAASGFTFSSYGMSWVRQTPDKRLEWVATISSGGSYIYYPDSVKGRFTISRDNAKNTLYLQMSSLKSEDTAMYYCARLGMITTGYAMDYWGQGTSVTVSS VL: DVLMTQTPLSLPVSLGDQASISCRSSQTIVHSTGHTYLEWFLQKPGQSPKLLIYKVSNRFSGVPDRFSGSGSGTDFTLKISRVEAEDLGVYYCFQGSHVPYTFGGGTKLEIK | 0.057 OD405 nm | 0.858 OD405 nm | 0.06 OD405 nm | 0.053 OD405 nm | 0.059 OD405 nm | 0.076 OD405 nm | 2.89 OD405 nm | 0.046 OD405 nm | 0.043 OD405 nm | 0.082 OD405 nm | 0.067 OD405 nm | 0.072 OD405 nm | 0.077 OD405 nm | 0.401 OD405 nm | 0.06 OD405 nm | 0.063 OD405 nm | 0.081 OD405 nm | 2.9 OD405 nm | 0.051 OD405 nm | 0.052 OD405 nm | signal [OD405 nm] [21]: 0.037 OD405 nm; signal [OD405 nm] [22]: 0.038 OD405 nm; signal [OD405 nm] [23]: 0.038 OD405 nm; signal [OD405 nm] [24]: 0.047 OD405 nm |
